Assay results as given in patent US20200199213A1 (Eli Lilly, published 2020).
Substitutions are numbered along the chain they refer to. Numbers in names are those of the source.

T1: human ANGPTL3/8 complex (human, UniProt Q9Y5C1 17-460; Q6UXH0 22-198, limits assumed)
T1 sequence 1: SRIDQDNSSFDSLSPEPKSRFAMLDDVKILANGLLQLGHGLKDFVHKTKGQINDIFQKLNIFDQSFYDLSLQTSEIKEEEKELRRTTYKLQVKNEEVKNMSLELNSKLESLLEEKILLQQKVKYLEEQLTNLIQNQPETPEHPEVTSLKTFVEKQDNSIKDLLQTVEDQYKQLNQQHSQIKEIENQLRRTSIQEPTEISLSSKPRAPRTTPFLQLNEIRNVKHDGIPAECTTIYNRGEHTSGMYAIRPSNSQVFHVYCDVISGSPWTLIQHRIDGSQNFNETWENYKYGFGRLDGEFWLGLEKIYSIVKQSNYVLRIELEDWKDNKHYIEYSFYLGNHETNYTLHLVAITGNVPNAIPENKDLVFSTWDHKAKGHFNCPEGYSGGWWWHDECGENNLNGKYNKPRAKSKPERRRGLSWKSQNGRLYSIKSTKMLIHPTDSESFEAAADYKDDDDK
T1 sequence 2: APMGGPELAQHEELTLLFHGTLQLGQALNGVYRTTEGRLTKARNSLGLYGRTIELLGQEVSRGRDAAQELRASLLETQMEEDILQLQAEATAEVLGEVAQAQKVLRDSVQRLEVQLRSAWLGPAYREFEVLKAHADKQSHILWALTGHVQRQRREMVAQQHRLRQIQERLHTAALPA

T2: mouse ANGPTL3/8 complex (mouse, UniProt Q9R182 17-455; Q8R1L8 16-198, limits assumed)
T2 sequence (looked up) 1: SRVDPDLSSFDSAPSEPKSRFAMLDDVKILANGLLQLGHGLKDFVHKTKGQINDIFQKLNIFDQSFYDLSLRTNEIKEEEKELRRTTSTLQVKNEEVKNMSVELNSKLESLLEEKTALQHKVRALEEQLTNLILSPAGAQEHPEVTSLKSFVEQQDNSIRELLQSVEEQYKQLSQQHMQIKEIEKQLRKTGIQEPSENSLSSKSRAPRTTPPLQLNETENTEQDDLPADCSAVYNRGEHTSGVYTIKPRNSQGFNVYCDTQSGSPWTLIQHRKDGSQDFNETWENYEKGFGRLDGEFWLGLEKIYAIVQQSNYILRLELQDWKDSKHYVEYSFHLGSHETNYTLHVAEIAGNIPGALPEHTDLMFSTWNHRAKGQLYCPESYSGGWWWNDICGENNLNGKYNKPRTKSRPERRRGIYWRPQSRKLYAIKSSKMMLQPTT
T2 sequence (looked up) 2: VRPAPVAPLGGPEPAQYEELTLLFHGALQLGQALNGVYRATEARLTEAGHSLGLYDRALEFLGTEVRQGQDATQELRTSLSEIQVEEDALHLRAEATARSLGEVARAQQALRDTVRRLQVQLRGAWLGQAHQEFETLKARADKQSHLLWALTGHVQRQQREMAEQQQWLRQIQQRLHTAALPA

T3: human ANGPTL3 (human, UniProt Q9Y5C1 17-460)
T3 construct: Biotinylated in the ELISA assays; also called hANGPTL3; free ANGPTL3
T3 sequence: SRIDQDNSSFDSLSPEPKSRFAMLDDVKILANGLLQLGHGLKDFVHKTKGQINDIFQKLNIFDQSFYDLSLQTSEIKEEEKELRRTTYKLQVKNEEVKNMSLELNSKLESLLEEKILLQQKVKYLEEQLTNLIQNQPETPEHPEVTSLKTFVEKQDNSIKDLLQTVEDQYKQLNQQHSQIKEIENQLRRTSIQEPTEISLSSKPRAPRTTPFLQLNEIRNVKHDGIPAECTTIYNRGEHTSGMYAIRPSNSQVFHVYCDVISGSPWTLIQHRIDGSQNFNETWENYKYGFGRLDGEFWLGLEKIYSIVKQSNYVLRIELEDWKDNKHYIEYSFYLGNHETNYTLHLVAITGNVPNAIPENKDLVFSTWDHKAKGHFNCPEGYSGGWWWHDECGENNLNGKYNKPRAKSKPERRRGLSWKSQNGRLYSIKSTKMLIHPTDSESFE

T4: human ANGPTL8 (human, UniProt Q6UXH0 22-198)
T4 construct: Biotinylated in the ELISA assays; also called hANGPTL8; free ANGPTL8
T4 sequence: T1 sequence 2

B1: Ab with LC variant having a D33A mutation (SEQ ID NO:22) and a HC of SEQ ID NO:6 (antibody, human IgG4 S228P, kappa, F234A L235A, V domains shown)
VH: QVTLKESGPTLVKPTQTLTLTCTFSGFSLSISGVGVGWIRQPPGKALEWLALIYRNDDKRYSPSLKSRLTITKDTSKNQVVLTLTNMDPVDTATYYCARTYSSGWYGNWFDPWGQGTLVTVSS
VL: DIVMTQTPLSLPVTPGEPASISCRSSQSLLDSADGNTYLDWYLQKPGQSPQLLIYMLSYRASGVPDRFSGSGSGTDFTLKISRVEAEDVGIYYCMQRIEFPLTFGGGTKVEIKR
notes: also called D33A Variant Ab; D33A Ab
B2: Ab with LC variant having a E99Q mutation (SEQ ID NO:25) and a HC of SEQ ID NO:6 (antibody, human IgG4 S228P, kappa, F234A L235A, V domains shown)
VH: B1 VH
VL: B1 VL with A33D, E99Q
notes: also called E99Q Variant Ab; E99Q Ab
B3: Ab with LC variant having a D31S mutation (SEQ ID NO:21) and a HC of SEQ ID NO:6 (antibody, human IgG4 S228P, kappa, F234A L235A, V domains shown)
VH: B1 VH
VL: B1 VL with D31S, A33D
notes: also called D31S Variant Ab; D31S Ab
B4: anti-ANGPTL3/8 complex Ab having a LC of SEQ ID NO:5 and a HC of SEQ ID NO:6 (antibody, human IgG4 S228P, kappa, F234A L235A, V domains shown)
VH: B1 VH
VL: B1 VL with A33D
notes: In the ELISA assays tested as IgG from CHO supernatants; also called the Ab

Target: T1, human ANGPTL3/8 complex
Assay: cell-based or functional assay

| % Max Derepression LPL | Ab EC50 (nM), derepression of LPL | Binder |
| --- | --- | --- |
| 103% | 1.14 nM | B1 |
| 106% | 0.49 nM | B2 |
| 106% | 0.86 nM | B3 |

Target: T2, mouse ANGPTL3/8 complex
Assay: cell-based or functional assay

| % Max Derepression LPL | Ab EC50 (nM), derepression of LPL | Binder |
| --- | --- | --- |
| 106% | 4.07 nM | B1 |
| 110% | 1.65 nM | B2 |
| 110% | 1.79 nM | B3 |

Target: T1, human ANGPTL3/8 complex
Assay: ELISA; Ab captured by anti-human Fc; biotinylated antigen at 3.70 nM
Protocol: (§1) ELISA Assay: Ab binding selectivity to either the ANGPTL3/8 complex, free ANGPTL3 or free ANGPTL8 is verified using standard ELISA assays. […] Ab from CHO supernatants after expression in CHO cells is then captured to the assay plate and results is an Ab concentration of 2 μg/ml. Biotinylated antigen (ANGPTL3, ANGPTL8 or ANGPTL3/8 complex) is added at varying concentrations by serial dilution to allow for Ab/antigen binding. Ab/antigen complexes are detected after the addition of alkaline phosphatase-conjugated neutravidin, and alkaline phosphatase substrate, and subsequent measurement of the optical density at 560 nm.

| OD at 560 nm | Binder |
| --- | --- |
| 1.04 OD 560 nm | B4 |
| 1.04 OD 560 nm | B1 |
| 1.13 OD 560 nm | B2 |
| 1.13 OD 560 nm | B3 |

Target: T3, human ANGPTL3
Assay: as above
Protocol: as §1

| OD at 560 nm | Binder |
| --- | --- |
| 0.046 OD 560 nm | B4 |
| 0.056 OD 560 nm | B1 |
| 0.06 OD 560 nm | B2 |
| 0.06 OD 560 nm | B3 |

Target: T4, human ANGPTL8
Assay: as above
Protocol: as §1

| OD at 560 nm | Binder |
| --- | --- |
| 0.051 OD 560 nm | B4 |
| 0.048 OD 560 nm | B1 |
| 0.056 OD 560 nm | B2 |
| 0.056 OD 560 nm | B3 |

Target: T1, human ANGPTL3/8 complex
Assay: ELISA; Ab captured by anti-human Fc; biotinylated antigen at 0.137 nM
Protocol: as §1

| OD at 560 nm | Binder |
| --- | --- |
| 0.11 OD 560 nm | B4 |
| 0.101 OD 560 nm | B1 |
| 0.137 OD 560 nm | B2 |
| 0.137 OD 560 nm | B3 |

Target: T3, human ANGPTL3
Assay: as above
Protocol: as §1

| OD at 560 nm | Binder |
| --- | --- |
| 0.048 OD 560 nm | B4 |
| 0.062 OD 560 nm | B1 |
| 0.057 OD 560 nm | B2 |
| 0.057 OD 560 nm | B3 |

Target: T4, human ANGPTL8
Assay: as above
Protocol: as §1

| OD at 560 nm | Binder |
| --- | --- |
| 0.047 OD 560 nm | B4 |
| 0.053 OD 560 nm | B1 |
| 0.08 OD 560 nm | B2 |
| 0.08 OD 560 nm | B3 |
